Assay [1] addresses T1, epidermal growth factor receptor (EGFR) on tumor cells (human, UniProt P00533 25-1210).
T1 construct: whole, on cells; also called EGFR on A431 cells; EGFR on MDAMB468 cells
Nature of the assay: flow cytometry, soluble monomeric scFv on A431 cells, 4 C, equilibrium. On the procedure:
Cell binding was performed at 4° C. in FACS buffer in a volume calculated to ensure fivefold scFv excess and for a duration calculated to ensure that the reaction had reached equilibrium. After two washes with 200 μL of FACS buffer, cell-bound scFv was detected by the addition of 100 μl of 1 μg/ml biotinylated His probe (Santa Cruz Biotech.) and a 1:800 (v/v) dilution of streptavidin-PE (Biosource). After incubation at 4° C. for 30 min, the cells were washed twice and resuspended in PBS containing 4% (v/v) paraformaldehyde. Fluorescence was measured by flow cytometry in a FACS LSRII instrument (Becton Dickinson), and the median fluorescence intensity (MFI) values were fit to the equation: […]
(§1) To generate soluble scFv, the scFv genes were subcloned from pYD2 into the bacterial secretion vector pSYN1 (Schier et al (1995) Immunotechnology, 1:73-81), which directed the scFv to the bacterial periplasm using the pelB leader. The scFv was harvested from the bacterial periplasm and purified by immobilized metal-affinity chromatography as described (Id.). […] To ensure that the KD of monovalent scFv was determined, gel-filtration chromatography was performed as described (Schier and Marks (1996) Hum. Antibodies Hybridomas: 7: 97-105) to separate native monovalent scFv from dimeric scFv and aggregated scFv. scFv was used for cellular KD measurements immediately after gel-filtration.

For assay [2], the target named is T2, A431 cells expressing EGFR (Homo sapiens, UniProt P00533).
T2 construct: Human squamous carcinoma A431 cells expressing EGFR; endogenous in cells; host or cells: A431 epidermal (squamous) carcinoma cells
Nature of the assay: Measurement of scFv affinity for cells expressing EGFR (flow cytometry). It is filed as binding. To be noted: soluble monovalent scFv, 4° C. As for the experimental part:
Human squamous carcinoma A431 cells expressing EGFR were grown to 80-90% confluence in RPMI medium supplemented with 10% fetal bovine serum and harvested by trypsinization. […] Cell binding was performed at 4° C. in FACS buffer in a volume calculated to ensure fivefold scFv excess and for a duration calculated to ensure that the reaction had reached equilibrium. After two washes with 200 μL of FACS buffer, cell-bound scFv was detected by the addition of 100 μl of 1 μg/ml biotinylated His probe (Santa Cruz Biotech.) and a 1:800 (v/v) dilution of streptavidin-PE (Biosource). After incubation at 4° C. for 30 min, the cells were washed twice and resuspended in PBS containing 4% (v/v) paraformaldehyde. Fluorescence was measured by flow cytometry in a FACS LSRII instrument (Becton Dickinson), and the median fluorescence intensity (MFI) values were fit to the equation:
MFI=MFImin+MFImax([Ab]/(KD+[Ab])
using the software program Kaleidagraph as described previously (Benedict et al. (1997) J. Immunol. Methods, 201: 223-231).

The target of assay [3] is T3, biotinylated EGFR-ECD (Homo sapiens, UniProt P00533).
T3 construct: Recombinant EGFR-ECD was expressed in HEK293 cells; biotin (chemical label, NHS-sulfo-LC-biotin on amines); made in house; host or cells: HEK293 cells
As to the kind of experiment: Yeast-displayed scFv affinity for biotinylated EGFR-ECD by flow cytometry. It is filed as binding. To be noted: scFv displayed on yeast; EGFR-ECD only 10% immunoreactive; read-out: KD for biotin-EGFR ECD. As for the experimental part:
(§2) Generally, six to eight different concentrations of biotinylated EGFR were used to span a range of concentrations from ten times above to ten times below the KD. Incubation volumes, times and yeast numbers were chosen to ensure that the studies were done in at least fivefold antigen excess and that equilibrium had been achieved (Razai et al. (2005) J. Mol. Biol. 351: 158-169). For anti-EGFR scFv, […] in 50 μl were incubated with biotinylated EGFR-ECD for 1 h at room temperature. […] Only yeast displaying scFv (as determined by binding of SV5 mAb) were gated for affinity measurements.

For assay [4], the target named is T4, MDAMB468 cells expressing EGFR (Homo sapiens, UniProt P00533).
T4 construct: Human breast cancer MDAMB468 cells expressing EGFR; endogenous in cells; host or cells: MDAMB468 breast carcinoma cells
Nature of the assay: Immunoliposome binding affinity for cells expressing EGFR (flow cytometry). Particulars: read-out: Apparent KD of immunoliposomes. As for the experimental part: Human breast cancer MDAMB468 cells expressing EGFR were grown to 80-90% confluence in L15 medium supplemented with 10% FBS and harvested by trypsinization. ILs labeled with DiIC18(3)-DS were incubated overnight with 10^4 cells at concentrations of IL ranging from 0.31-2.5 nM. The concentration of IL was converted from the concentration of phospholipid on the basis of the approximate number of phospholipid molecules per liposome (80,000). Cell binding was performed at 4° C. in FACS buffer in adequate volume to ensure a fivefold excess of ILs and that the reaction had come to equilibrium. After two washes with 200 μl of FACS buffer, the amount of cell-bound ILs was quantified by flow cytometry in a FACS LSRII (Becton Dickinson). Data analysis was the same as for the measurement of scFv KD.
(In general: In flow cytometry, cells or beads pass a laser one at a time.)

Assay [5] has as its system EGFR-over-expressing MDAMB468 cells. As to the kind of experiment: Internalization/uptake of anti-EGFR immunoliposomes (microscopy, flow cytometry). It is filed as cell-based, Human. To be noted: 74 scFv/liposome; for endocytosis of ILs by fluorescence microscopy: MDAMB468. On the procedure:
(§3) scFv-mediated internalization of fluorescent immunoliposomes was analyzed and quantified by microscopy and flow cytometry. C10 scFv fragments were inserted into liposomes at ratios of 5, 10, 15, 30 and 60 μg scFv/μmol phospholipid (Mamot et al. (2003) Cancer Res. 63: 3154-3161). scFv densities of 16, 32, 48, 96 and 192 scFv/liposome were calculated on the basis of the molecular mass of scFv (26 kDa) and the approximate number of phospholipid molecules/liposome (80,000). The conjugation technology for scFv to Mal-PEG-DSPE is remarkably reproducible with an efficiency of 77.3(±3.1) % (range 75-82% over six batches) (Nellis et al. (2005) Biotechnol. Prog. 21: 205-220). […] For microscopy studies, 150,000 cells were incubated with 50 μM PL of untargeted and EGFR-targeted ILs labeled with DiIC18(3)-DS in a 12-well plate for 2 h at 37° C., followed by washing with PBS and further incubation at 37° C. for 2 h. The cells were then analyzed by using an inverted fluorescence microscope (Nikon Eclipse, TE300) with a 540/25 nm band-pass filter for excitation and a long-pass filter at 565 nm for emission. For quantitative uptake of immunoliposomes, 250,000 cells were incubated with EGFR-targeted ILs labeled with ADS645 in a six-well plate for 2 h at 37° C., washed with PBS, removed in trypsin solution and fluorescence quantified with a FACSAria instrument (Beckton Dickinson). To determine the effect of EGF competition on internalization of EGFR-targeted ILs, IL internalization was quantified as described above, except that 50 μM targeted ILs and cells were incubated with EGF concentrations ranging from 0.2-25 nM. ANOVA (analysis of variance) was used to analyze the statistical differences of the quantified uptake.

Assay [6] has as its system MDAMB231 cells. Nature of the assay: Uptake of EGFR immunoliposomes into cells of lower EGFR density. The format is cell-based, human. To be noted: for IL uptake into MDAMB231 cells compared to A431 cells: all scFv densities studied, 480,000 EGFR/cell. As for the experimental part: as §3
To determine the impact of receptor density on IL uptake, we measured the uptake of the different ILs into MDAMB231 cells which express 480,000 EGFR/cell as determined by flow cytometry using Quantum Simply Cellular anti-Human IgG beads (Bangs Laboratories Inc.). […] Uptake into MDAMB231 cells increased with increasing scFv density, reaching a plateau at an IL scFv density of 74 scFv/IL for P2/4 scFv and at 37 scFv/IL for 2224 scFv (FIG. 6C).

Assay [7] deals with MDAMB468 cells expressing intact EGFR (Homo sapiens, UniProt P00533). Particulars: EGF competition.
The target of assay [8] is T5, biotinylated recombinant EGFR-ECD (UniProt P00533 25-645, limits assumed, biotinylated with NHS-sulfo-LC-biotin).
T5 construct: extracellular domain; The claims speak of human EGFR; also called biotin-EGFR ECD; biotinylated EGFR
Nature of the assay: flow cytometry, yeast-displayed scFv, biotinylated EGFR-ECD, equilibrium. As for the experimental part:
as §2

The target in assay [9] is T1, epidermal growth factor receptor (EGFR) …. Nature of the assay: flow cytometry, soluble scFv on A431 cells; this end is tied to P3/5 through the KD values of Table 2. On the procedure: After two washes with 200 μL of FACS buffer, cell-bound scFv was detected by the addition of 100 μl of 1 μg/ml biotinylated His probe (Santa Cruz Biotech.) and a 1:800 (v/v) dilution of streptavidin-PE (Biosource). After incubation at 4° C. for 30 min, the cells were washed twice and resuspended in PBS containing 4% (v/v) paraformaldehyde. Fluorescence was measured by flow cytometry in a FACS LSRII instrument (Becton Dickinson), and the median fluorescence intensity (MFI) values were fit to the equation: […]
as §1

Consider 7 molecules from patent US20100009390A1, “MUTANT ANTIBODIES WITH HIGH AFFINITY FOR EGFR” (THE REGENTS OF THE UNIVERSITY OF CALIFORNIA, priority 2008, published 2010).

Where a chain is given by its changes, count along the chain named. Several values for one entry are separate records, joined by “and”; a condition that tells them apart may be missing. Equal entries are not always repeated. Where two headings read alike, the source gives them in different places.

B1: anti-EGFR scFv C10 (scFv, V domains shown)
VH: EVQLVQSGAEVKKPGSSVKVSCKASGGTFSSYAISWVRQAPGQGLEWMGGIIPIFGTANYAQKFQGRVTITADESTSTAYMELSSLRSEDTAVYYCAREEGPYCSSTSCYGAFDIWGQGTLVTVSS
VL: QSVLTQDPAVSVALGQTVKITCQGDSLRSYFASWYQQKPGQAPTLVMYARNDRPAGVPDRFSGSKSGTSASLAISGLQSEDEADYYCAAWDDSLNGYLFGAGTKLTVL
notes: Soluble monomeric scFv from pSYN1 in E. coli (Ni-NTA purified, detected with a His probe) in the assays on cells; also called C10 scFv; wild-type C10 scFv
On to B1, for which the Kd in assay [1] came to 264 nM.

B2: P3/5: C10 scFv mutant from the P3 sort gate; SEQ ID NO:11 (protein)
scFv: B1 VH with M48V, T69K, T76A
modifications: Variable chain of single chain antibody.
For the molecule B2, in assay [2], the Kd was found to be 88 nM.

B3: P2/4: C10 scFv mutant, Gly to Ala in VH CDR3 and Pro to Ala in VL FR1; SEQ ID NO:5 (protein)
scFv: B1 VH with G111A
modifications: Variable chain of single chain antibody.
In the case of B3, the Kd was 1800 nM in assay [3]; 15 nM and 15.4 nM in [2]; 2.04 nM in assay [4] (37 scFv/liposome); 0.4 nM in [4] (74 scFv/liposome); 0.18 nM in assay [4] (148 scFv/liposome). For the same molecule, the “IL uptake greater compared to C10” value in [5] (IL 0.63 nM, flow cytometry) came to 24%. In assay [5], the “endocytosis of ILs by fluorescence microscopy” value is listed as “endocytosed efficiently”. The “IL scFv density at which uptake into MDAMB231 cells reaches a plateau” value in assay [6] came to 74 scFv/IL. The “IL uptake into MDAMB231 cells compared to A431 cells” value in assay [6] was “significantly less uptake”.

B4: 2224: combined mutant scFv: P2/2 with the VH CDR3 Gly to Ala mutation from P2/4; SEQ ID NO:17 and 24 (protein)
scFv: B1 VL with F31L, M47T
modifications: Variable chain of single chain antibody.
As to B4, the “IC50 of ILs less than the scFv IC50” value in [7] was 20 fold. In addition, in assay [5] (IL 0.63 nM, flow cytometry), the “difference in IL uptake versus ILs from C10 or P2/4 scFv” value is recorded as “no statistically significant difference”. In addition, in [5], the “endocytosis of ILs by fluorescence microscopy” value was “endocytosed efficiently”. Further, in assay [6], the “IL scFv density at which uptake into MDAMB231 cells reaches a plateau” value is 37 scFv/IL and the “IL uptake into MDAMB231 cells compared to A431 cells” value was “significantly less uptake”.

B5: combined C10 mutant scFv 2224 (scFv, V domains shown)
VH: B1 VH with S35G, T57I, T78S, G111A
VL: B1 VL with S79P
notes: P2/2 with the VH CDR3 Gly to Ala substitution of P2/4; soluble His-tagged monomeric scFv on cells
Consider B5, for which the Kd in assay [8] worked out at 600 nM.

B6: C10 mutant scFv P3/5 (scFv, V domains shown)
VH: B1 VH with M48V, T69K, T76A
VL: B1 VL with F31L, M47T
notes: soluble His-tagged monomeric scFv on cells
B6: the “fold improvement in affinity compared to C10 scFv” value in assay [9] lay within 3 to 18 fold. Besides, in assay [1], the Kd is 88.2 nM.

B7: C10 mutant scFv P2/2 (scFv, V domains shown)
VH: B1 VH with S35G, T57I, T78S
VL: B1 VL with S79P
notes: as for B6
For the molecule B7, the Kd was 17 nM in assay [1] and 1800 nM in assay [8].
